In PMC9482650, “Quantitative fragmentomics allow affinity mapping of interactomes” (Nature Communications, 2022):

T1: LIN7A, O14910
T1 sequence (O14910 103-200, limits assumed, looked up): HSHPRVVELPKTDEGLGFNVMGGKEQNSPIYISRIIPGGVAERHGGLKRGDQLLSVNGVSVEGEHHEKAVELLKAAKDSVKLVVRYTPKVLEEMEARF

T2: FRMPD1, Q5SYB0
T2 sequence (Q5SYB0 52-145, limits assumed, looked up): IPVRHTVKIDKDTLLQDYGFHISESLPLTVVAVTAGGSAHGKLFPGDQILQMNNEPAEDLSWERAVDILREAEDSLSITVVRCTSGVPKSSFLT

T3: PARD3B_1, Q8TEW8
T3 sequence (Q8TEW8 196-299, limits assumed, looked up): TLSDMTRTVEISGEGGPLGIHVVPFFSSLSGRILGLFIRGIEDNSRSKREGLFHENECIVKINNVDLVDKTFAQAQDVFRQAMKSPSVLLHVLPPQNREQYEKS

T4: DFNB31_3, Q9P202
T4 sequence (Q9P202 811-907, limits assumed, looked up): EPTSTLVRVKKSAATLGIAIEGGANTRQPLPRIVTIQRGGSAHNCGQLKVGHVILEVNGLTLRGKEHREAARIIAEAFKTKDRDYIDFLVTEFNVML

T5: APBA1_1, Q02410
T5 sequence (Q02410 651-752, limits assumed, looked up): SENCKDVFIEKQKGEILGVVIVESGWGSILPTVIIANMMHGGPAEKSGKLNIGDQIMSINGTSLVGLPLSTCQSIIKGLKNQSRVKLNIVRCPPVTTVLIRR

T6: GRIP1_2, Q9Y3R0
T6 sequence (Q9Y3R0 145-248, limits assumed, looked up): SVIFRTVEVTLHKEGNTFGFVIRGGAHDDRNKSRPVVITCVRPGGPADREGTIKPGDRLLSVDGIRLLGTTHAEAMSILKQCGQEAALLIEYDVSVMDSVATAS

T7: DLG3_1, Q92796
T7 sequence (Q92796 125-227, limits assumed, looked up): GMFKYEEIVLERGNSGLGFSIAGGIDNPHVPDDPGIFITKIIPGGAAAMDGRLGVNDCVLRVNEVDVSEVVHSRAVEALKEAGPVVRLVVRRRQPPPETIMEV

T8: HTRA4, P83105
T8 sequence (P83105 378-476, limits assumed, looked up): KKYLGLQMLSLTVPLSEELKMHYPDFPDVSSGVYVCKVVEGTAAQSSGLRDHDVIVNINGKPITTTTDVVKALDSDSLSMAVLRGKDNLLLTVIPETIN

T9: MPP2, Q14168
T9 sequence (Q14168 180-250, limits assumed, looked up): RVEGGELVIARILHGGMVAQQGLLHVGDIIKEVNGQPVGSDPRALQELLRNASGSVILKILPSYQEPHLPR

T10: APBA2_2, Q99767
T10 sequence (Q99767 654-744, limits assumed, looked up): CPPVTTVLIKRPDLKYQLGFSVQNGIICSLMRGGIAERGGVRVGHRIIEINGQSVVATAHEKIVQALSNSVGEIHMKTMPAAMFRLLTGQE

T11: DFNB31_2, Q9P202
T11 sequence (Q9P202 274-371, limits assumed, looked up): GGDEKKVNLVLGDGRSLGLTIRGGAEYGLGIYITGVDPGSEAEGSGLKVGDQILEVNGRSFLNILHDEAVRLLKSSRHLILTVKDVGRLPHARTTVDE

T12: SNTA1, Q13424
T12 sequence (Q13424 82-180, limits assumed, looked up): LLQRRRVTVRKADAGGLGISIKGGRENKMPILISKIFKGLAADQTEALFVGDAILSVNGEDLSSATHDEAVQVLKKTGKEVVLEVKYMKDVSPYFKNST


Experiments:
Experiment in all cases: holdup assay
Parameters in all cases: key: below the threshold = too weak to quantify, mostly under pKd 3.1 to 4
Details in all cases: plain residues with an end cap or a label only (N-terminal biotin on a linker: ttds)
HTRA1, Q92743 = target: HTRA1, Q92743
HTRA1, Q92743, sequence (Q92743 360-477): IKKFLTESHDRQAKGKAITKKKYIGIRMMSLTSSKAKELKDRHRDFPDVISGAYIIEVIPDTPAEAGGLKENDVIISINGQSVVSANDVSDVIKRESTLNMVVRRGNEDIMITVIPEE

MAGI2_6, Q86UL8 = target: MAGI2_6, Q86UL8
MAGI2_6, Q86UL8, sequence (Q86UL8 1141-1229): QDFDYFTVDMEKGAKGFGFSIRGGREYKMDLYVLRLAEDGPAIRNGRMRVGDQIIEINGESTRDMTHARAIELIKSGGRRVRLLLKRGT

LIN7A, O14910 = target: T1, LIN7A, O14910
GRIP2_7, Q9C0E4 = target: GRIP2_7, Q9C0E4
GRIP2_7, Q9C0E4, sequence (Q9C0E4 934-1023): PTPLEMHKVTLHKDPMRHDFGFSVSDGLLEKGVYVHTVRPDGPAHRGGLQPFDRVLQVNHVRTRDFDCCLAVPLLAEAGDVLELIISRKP

IL16_3, Q14005 = target: IL16_3, Q14005
IL16_3, Q14005, sequence (Q14005 1107-1207): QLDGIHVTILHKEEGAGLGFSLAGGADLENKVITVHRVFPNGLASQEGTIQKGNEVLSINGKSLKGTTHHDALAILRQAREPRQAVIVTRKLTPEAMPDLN

GORASP2, Q9H8Y8 = target: GORASP2, Q9H8Y8
FRMPD1, Q5SYB0 = target: T2, FRMPD1, Q5SYB0
PARD3B_1, Q8TEW8 = target: T3, PARD3B_1, Q8TEW8
MAGI1_1, Q96QZ7 = target: MAGI1_1, Q96QZ7
MAGI1_1, Q96QZ7, sequence (Q96QZ7 1-106): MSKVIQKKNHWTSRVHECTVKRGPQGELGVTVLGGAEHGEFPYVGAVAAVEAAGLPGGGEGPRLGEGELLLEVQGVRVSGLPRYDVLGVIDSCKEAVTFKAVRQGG

DFNB31_3, Q9P202 = target: T4, DFNB31_3, Q9P202
APBA1_1, Q02410 = target: T5, APBA1_1, Q02410
GRIP1_2, Q9Y3R0 = target: T6, GRIP1_2, Q9Y3R0
SCRIB_1, Q14160 = target: SCRIB_1, Q14160
SCRIB_1, Q14160, sequence (Q14160 718-814): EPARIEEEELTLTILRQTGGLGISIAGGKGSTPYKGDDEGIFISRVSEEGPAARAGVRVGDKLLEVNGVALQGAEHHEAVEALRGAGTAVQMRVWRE

MAGI2_4, Q86UL8 = target: MAGI2_4, Q86UL8
MAGI2_4, Q86UL8, sequence (Q86UL8 772-865): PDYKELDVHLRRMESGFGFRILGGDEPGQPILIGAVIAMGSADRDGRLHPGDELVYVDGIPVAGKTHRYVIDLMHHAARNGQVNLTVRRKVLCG

DLG3_1, Q92796 = target: T7, DLG3_1, Q92796
HTRA4, P83105 = target: T8, HTRA4, P83105
DLG2_2, Q15700 = target: DLG2_2, Q15700
DLG2_2, Q15700, sequence (Q15700 189-283): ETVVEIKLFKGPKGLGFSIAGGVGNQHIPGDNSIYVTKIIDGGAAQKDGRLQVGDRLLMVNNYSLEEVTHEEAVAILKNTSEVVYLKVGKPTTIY

MPP2, Q14168 = target: T9, MPP2, Q14168
APBA2_2, Q99767 = target: T10, APBA2_2, Q99767
GRASP, Q7Z6J2 = target: GRASP, Q7Z6J2
GRASP, Q7Z6J2, sequence (Q7Z6J2 96-193): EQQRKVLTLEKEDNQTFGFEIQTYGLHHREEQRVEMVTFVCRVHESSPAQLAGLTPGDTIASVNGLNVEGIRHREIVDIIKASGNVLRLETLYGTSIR

LNX1_2, Q8TBB1 = target: LNX1_2, Q8TBB1
LNX1_2, Q8TBB1, sequence (Q8TBB1 371-470): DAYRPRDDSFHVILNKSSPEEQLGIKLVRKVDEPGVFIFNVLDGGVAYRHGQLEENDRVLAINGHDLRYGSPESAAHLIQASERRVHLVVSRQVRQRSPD

DFNB31_2, Q9P202 = target: T11, DFNB31_2, Q9P202
SNTA1, Q13424 = target: T12, SNTA1, Q13424
FRMPD4, Q14CM0 = target: FRMPD4, Q14CM0
FRMPD4, Q14CM0, sequence (Q14CM0 67-160): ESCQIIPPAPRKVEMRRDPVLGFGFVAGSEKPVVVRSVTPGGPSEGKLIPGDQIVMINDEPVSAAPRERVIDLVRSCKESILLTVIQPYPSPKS

MAST2, Q6P0Q8 = target: MAST2, Q6P0Q8
MAST2, Q6P0Q8, sequence (Q6P0Q8 1099-1202): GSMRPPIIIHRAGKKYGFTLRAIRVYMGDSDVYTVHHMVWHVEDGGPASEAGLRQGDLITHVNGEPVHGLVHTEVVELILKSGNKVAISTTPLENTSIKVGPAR

Row | Binder | pKd (HTRA1, Q92743) | pKd (MAGI2_6, Q86UL8) | pKd (LIN7A, O14910) | pKd (GRIP2_7, Q9C0E4) | pKd (IL16_3, Q14005) | pKd (GORASP2, Q9H8Y8) | pKd (FRMPD1, Q5SYB0) | pKd (PARD3B_1, Q8TEW8) | pKd (MAGI1_1, Q96QZ7) | pKd (DFNB31_3, Q9P202) | pKd (APBA1_1, Q02410) | pKd (GRIP1_2, Q9Y3R0) | pKd (SCRIB_1, Q14160) | pKd (MAGI2_4, Q86UL8) | pKd (DLG3_1, Q92796) | pKd (HTRA4, P83105) | pKd (DLG2_2, Q15700) | pKd (MPP2, Q14168) | pKd (APBA2_2, Q99767) | pKd (GRASP, Q7Z6J2) | other results
1 | SEKHFRETEV [HTLV1-TAX1, P03409] | 3.97 | 4.43 | 3.82 | 3.75 | below the threshold | below the threshold | below the threshold | below the threshold | below the threshold | below the threshold | below the threshold | below the threshold | 5.63 | 4.49 | 4.58 | below the threshold | 5.21 | below the threshold | below the threshold | below the threshold | pKd (LNX1_2, Q8TBB1): 3.71; pKd (DFNB31_2, Q9P202): 3.71; pKd (SNTA1, Q13424): 5.9; pKd (FRMPD4, Q14CM0): below the threshold; pKd (MAST2, Q6P0Q8): 5.42
2 | PKRPFVESNV [TANC2, Q9HCD6] | below the threshold | 3.76 | below the threshold | below the threshold | below the threshold | below the threshold | below the threshold | below the threshold | below the threshold | below the threshold | below the threshold | below the threshold | 4.75 | below the threshold | 3.82 | below the threshold | 4.33 | below the threshold | below the threshold | below the threshold | pKd (LNX1_2, Q8TBB1): below the threshold; pKd (DFNB31_2, Q9P202): below the threshold; pKd (SNTA1, Q13424): 4.33; pKd (FRMPD4, Q14CM0): below the threshold; pKd (MAST2, Q6P0Q8): 4.84
3 | VNKVWDQSSV [CIT, O14578] | below the threshold | 3.57 | below the threshold | below the threshold | below the threshold | below the threshold | below the threshold | below the threshold | below the threshold | below the threshold | below the threshold | below the threshold | 5.04 | below the threshold | below the threshold | below the threshold | below the threshold | below the threshold | below the threshold | 4.33 | pKd (LNX1_2, Q8TBB1): below the threshold; pKd (DFNB31_2, Q9P202): below the threshold; pKd (SNTA1, Q13424): below the threshold; pKd (FRMPD4, Q14CM0): below the threshold; pKd (MAST2, Q6P0Q8): 5.14
